We go through 15 sequences from the supplement of paper PMC9170038.

The data set relates to MS2 coat protein. Kind of data set: apparent KD of MS2 coat protein; higher = weaker reporter binding. As to conditions: Eterna round: R107. As for the experimental part:
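RNA-MaP round R107: designed RNA switches with theophylline, tryptophan, arginine or FMN aptamers are transcribed on-chip within common flanks. They are titrated with SNAP-549-labelled MS2 coat protein in RNA-MaP buffer (100 mM Tris pH 7.5, 80 mM KCl, 4 mM MgCl2), without ligand or with the indicated ligand. Median apparent KD per design.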

Where [1] appears, read: input ligand: theophylline 20 uM.
Setting [2] is: input ligand: theophylline 2 mM.
[3] abbreviates: input ligand: tryptophan 2.4 mM.

Regarding “AAAAUCCUACUUGAGGAUCACCCAGGUGAAGGAGCGCCCGAAAGGGCAGGUAGGUCGCACCUGAGGAUCACCCUGGUAAACCUAA [ArgEX 8 #DoubleMS2 #OpenEnded]”, the “apparent KD of MS2 coat protein” value reads like this: (input ligand: arginine 13.2 mM) 79.1 nM; (input ligand: none) 140 nM; under setting [1], 135 nM; under setting [2], 185 nM; under setting [3], 152 nM.

Consider “AAACAUUGCUCAGAUACCAGACAUGAGGAUCACCCAUGUACCAAGGUAAAGAAAUAACGUGUCCCUUGGCAGCUGAGCAAUGAAA [MAT - Exclusion Theophlline B - Mod of Eli - D10]”, for which the “apparent KD of MS2 coat protein” value is, setting by setting: (input ligand: arginine 13.2 mM) 11.5 nM; under setting [1], 12.8 nM; under setting [3], 10.9 nM.

With “AAAUAAAUACAUGAGGAUCACCCAUGUGAAGGAGCGCCCGUUAGGGCAGGUAGGUCGCGCAUGAAUAACUCCGUGCAAAAGCACA [ArgEX 19 #OpenEnded]”, the “apparent KD of MS2 coat protein” value came to 57.8 nM (input ligand: arginine 13.2 mM); 15.6 nM (input ligand: none); 37.3 nM under setting [1]; 26.4 nM under setting [2]; 19.6 nM under setting [3].

For “AACAGGGCUUCCACGAAGCCCUAAGGUGAUACCAGCACAUGUAAGUGCCCUUGGCAGCACGGUACAUGAGGAUCACCCAUGUAGA [Gerara]”, the “apparent KD of MS2 coat protein” value by setting is: (input ligand: arginine 13.2 mM) 19.9 nM; under setting [1], 237 nM; under setting [3], 24.3 nM.

Turning to “AACAGGGUCUGAAGGAGCGCGAUCACAUGAGGAUCACCCAUGUGAAAUGGUAGAUGAUACUCGCAGGUAGGUCGCAGUACUUGAC [Same State Arginine B GF 15]”, the “apparent KD of MS2 coat protein” value reads like this: (input ligand: arginine 13.2 mM) 54.2 nM; (input ligand: none) 33.6 nM; under setting [1], 127 nM; under setting [2], 82.4 nM; under setting [3], 28.4 nM.

“AACAUACAGUUUUAGGUGGAUAUAAGGCGGCGAGGACCGGUACGGCCGCCACUCGCGUACAUGAGGAUCACCCAUGUCUGAAGCU [Same State - Tryptophan A (Freestyle 7)]”: the “apparent KD of MS2 coat protein” value reads like this: (input ligand: arginine 13.2 mM) 24.4 nM; under setting [1], 59.2 nM; under setting [2], 86.9 nM.

Take “AACAUGAGGAUCACCCAUGUCCCAUGUGAACGAGGACCGGUACGGCCGCCACUCGACCGAGGCGGCACAUGAGGAUCACCCACAU [whbob_SS_trypto A_2s13]”: the “apparent KD of MS2 coat protein” value reads like this: (input ligand: arginine 13.2 mM) 137 nM; under setting [1], 278 nM; under setting [2], 370 nM.

Regarding “AACAUGAGGAUCACCCAUGUCGGGCCGGAGCGAGGACCGGUACGGCCGCCACUCGAGACAUGAGGAUCACCCAUGUAGGGCGAAA [Exclusion Tryptophan A GF21]”, the “apparent KD of MS2 coat protein” value by setting is: (input ligand: arginine 13.2 mM) 61.5 nM; (input ligand: none) 116 nM; under setting [1], 141 nM; under setting [2], 189 nM; under setting [3], 186 nM.

“AACAUGAGGAUCACCCAUGUCGGGCCGGUGCGAGGACCGGUACGGCCGCCACUCGAGACAUGAGGAUCACCCAUGUAGGGCGAGA [Exclusion Tryptophan A GF22]”: the “apparent KD of MS2 coat protein” value (input ligand: arginine 13.2 mM) was determined as 44 nM; the “apparent KD of MS2 coat protein” value (input ligand: none) was found to be 79.7 nM; the “apparent KD of MS2 coat protein” value under setting [1] came to 70.7 nM; the “apparent KD of MS2 coat protein” value under setting [2] turned out to be 80.7 nM; the “apparent KD of MS2 coat protein” value under setting [3] was 115 nM.

With “AACAUGAGGAUCACCCAUGUCUGAACUGAAGGAGCGCUAAAUAAGGCAGGUAGGUCGCGGAAUUUUAUAUAUAUAUAUAUAUAGG [9.D]”, the “apparent KD of MS2 coat protein” value (input ligand: arginine 13.2 mM) turned out to be 28.7 nM; the “apparent KD of MS2 coat protein” value (input ligand: none) was 28 nM; the “apparent KD of MS2 coat protein” value under setting [1] amounted to 31.9 nM; the “apparent KD of MS2 coat protein” value under setting [2] turned out to be 19.8 nM; the “apparent KD of MS2 coat protein” value under setting [3] was 25 nM.

Turning to “AACAUGAGGAUCACCCAUGUCUGAACUGAAGGAGCGCUAAAUAAGGCAGGUAGGUCGCGGAAUUUUGUAUAUAUAUAUAUAUGGG [9.F]”, the “apparent KD of MS2 coat protein” value came to 6.01 nM (input ligand: arginine 13.2 mM); 27.7 nM (input ligand: none); 28.5 nM under setting [1]; 25 nM under setting [2]; 20.3 nM under setting [3].

Take “AACAUGAGGAUCACCCAUGUCUGAACUGAAGGAGCGCUAAAUAAGGCAGGUAGGUCGCGGAAUUUUGUGUGCAUAUGCAUAUGGG [9.I]”: the “apparent KD of MS2 coat protein” value reads like this: (input ligand: arginine 13.2 mM) 28.1 nM; (input ligand: none) 30.3 nM; under setting [1], 32.6 nM; under setting [2], 29.8 nM; under setting [3], 23.8 nM.

For the sequence “AACGUAUACAGAAGGAGCGUGAAUUAUAUUACUCAUUCAUAUACAUGAGGAUCACCCAUGUCACAGGUAGGUCGCUGUAUUCGUA [JR_ExcArginiB_Sub020]”, the “apparent KD of MS2 coat protein” value is 55.9 nM (input ligand: arginine 13.2 mM); 82.2 nM (input ligand: none); 92 nM under setting [1]; 86.9 nM under setting [2]; 65.4 nM under setting [3].

In the case of “AAGACAUGAGGAUCACCCAUGUCGACAAAACGAGGACCGGUACGGCCGCCACUCGAAAGCAAAUGAGCGCAUGCGGCCUGGGUAU [Exclusion Tryp A GF2]”, the “apparent KD of MS2 coat protein” value reads like this: (input ligand: arginine 13.2 mM) 10.1 nM; (input ligand: none) 11.9 nM; under setting [1], 14.1 nM; under setting [2], 12 nM; under setting [3], 12.7 nM.

For the sequence “AAGUGGCACGGAAGGAGCGAGUUUACCUAAAUAACAUGAGGAUCACCCAUGUAUAAUGGGACUCAGGUAGGUCGCCGUUGUCACU [Same State Arginine B GF 23]”, the “apparent KD of MS2 coat protein” value (input ligand: arginine 13.2 mM) came to 22.9 nM; the “apparent KD of MS2 coat protein” value (input ligand: none) was 29.3 nM; the “apparent KD of MS2 coat protein” value under setting [1] turned out to be 43.1 nM; the “apparent KD of MS2 coat protein” value under setting [2] came out at 28.8 nM; the “apparent KD of MS2 coat protein” value under setting [3] worked out at 33 nM.
